± gives the uncertainty stated by the source.

The nature of this data set: self-splicing fitness, log relative to wild type (ln ratio); higher = more splicing; Tetrahymena group I intron in knt gene, E. coli kanamycin selection, DiMSum; sequences stand for … in CUCUCU…GGAGGGAAAAGUUAUCAGGCAUGCACCUGGUAGCUAGUCUUUAAACCAAUAGAUUGCAUCGGUUUAAAAGGCAAGACCGUCAAAUUGCGGGAAAGGGGUCAACAGCCGUUCAGUACCAAGUCUCAGGGGAAACUUUGAGAUGGCCUUGCAAAGGGUAUGGUAAUAAGCUGACGGACAUGGUCCUAACCACGCAGCCAAGUCCUAAGUCAACAGAUCUUCUGUUGAUAUGGAUGCAGUUCACAGACUAAAUGUCGGUCGGGGAAGAUGUAUUCUUCUCAUAAGAUAUAGUCGGACCUCUCCUUAAUGGGAGCUAGCGGAUGAAGUGAUGCAACACUGGAGCCGCUGGGAACUAAUUUGUAUGCGAAAGUAUAUUGAUUAGUUUUGGAGUACUCGUGGUCG
The essentials:
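DiMSum derived fitness as the error-weighted combination of fold changes across replicates, kanamycin versus no kanamycin, normalised to wild type. E. coli BL21(DE3) held the library, which randomised all eight P1ex-region intron nucleotides within the knt kanamycin-resistance gene on pET-22b(+). Six replicate transformations grew overnight at 37°C or 30°C on LB agar with or without 25 μg/mL kanamycin, also containing 100 μg/mL carbenicillin, 50 μM IPTG and 0.2% rhamnose, and pooled colonies were amplicon-sequenced on an Illumina HiSeq 2500.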

For the sequence GCUAAGCAAUAUUACGUUCG, the “self-splicing fitness (ln)” value is -0.791 ± 0.097 (30 °C) and -0.25 ± 0.17 (37 °C). The like results for GAUUAGCAAUAUUACGUGAG were, in that order, -1.33 ± 0.073 and 0.0593 ± 0.096.

Regarding CAUAAGCAAUAUUACGUCCA, the “self-splicing fitness (ln)” value runs as follows: (30 °C) -3.32 ± 0.33; (37 °C) -1.87 ± 0.22.

On to AAUCAGCAAUAUUACGUUAU, for which the “self-splicing fitness (ln)” value reads like this: (30 °C) -0.401 ± 0.041; (37 °C) 0.272 ± 0.062. Consider UUGCAGCAAUAUUACGAUGC, for which the “self-splicing fitness (ln)” value by setting is: (30 °C) -3.16 ± 0.46; (37 °C) -1.54 ± 0.45. Consider CUCGAGCAAUAUUACGCGCC, for which the “self-splicing fitness (ln)” value (30 °C) was -2.53 ± 0.19 and the “self-splicing fitness (ln)” value (37 °C) is -2.12 ± 0.37. For CGAAAGCAAUAUUACGCCUC, under “37 °C”, the “self-splicing fitness (ln)” value was -1.53 ± 0.32. With CGUCAGCAAUAUUACGGCUU, the “self-splicing fitness (ln)” value reads like this: (30 °C) -1.34 ± 0.11; (37 °C) -0.493 ± 0.099. For CACAAGCAAUAUUACGAACC, in that order: -2.66 ± 0.47 and -1.98 ± 0.36.

Take GAGUAGCAAUAUUACGAAAG: the “self-splicing fitness (ln)” value (37 °C) was -1.2 ± 0.3. As to GAGCAGCAAUAUUACGGUAU, the “self-splicing fitness (ln)” value (30 °C) was -2.9 ± 0.11 and the “self-splicing fitness (ln)” value (37 °C) was -1.34 ± 0.1.

With AUCAAGCAAUAUUACGUUAU, the “self-splicing fitness (ln)” value was -2.29 ± 0.1 (30 °C) and -0.69 ± 0.09 (37 °C).

As for UCUAAGCAAUAUUACGCGUA, the “self-splicing fitness (ln)” value (30 °C) was -3.11 ± 0.2 and the “self-splicing fitness (ln)” value (37 °C) is -2.27 ± 0.23. Turning to UUAAAGCAAUAUUACGGGUC, the “self-splicing fitness (ln)” value was -3.44 ± 0.22 (30 °C) and -2.48 ± 0.24 (37 °C).

Regarding CCACAGCAAUAUUACGGCUA, the “self-splicing fitness (ln)” value (30 °C) is -3.88 ± 0.16 and the “self-splicing fitness (ln)” value (37 °C) is -2.89 ± 0.15.

ACGCAGCAAUAUUACGAUUG: the “self-splicing fitness (ln)” value (30 °C) is -2.96 ± 0.18 and the “self-splicing fitness (ln)” value (37 °C) was -1.82 ± 0.17. Regarding CCUCAGCAAUAUUACGUGGC, the “self-splicing fitness (ln)” value is -3.94 ± 0.22 (30 °C) and -3.01 ± 0.24 (37 °C). As to GCUUAGCAAUAUUACGGCCG, the “self-splicing fitness (ln)” value was -1.9 ± 0.34 (30 °C) and -1.48 ± 0.36 (37 °C). ACAAAGCAAUAUUACGUAAU: the “self-splicing fitness (ln)” value reads like this: (30 °C) -2.62 ± 0.061; (37 °C) -1.14 ± 0.074. For AACUAGCAAUAUUACGCGGC, in that order: -3.01 ± 0.19 and -3.27 ± 0.22. As to GCUAAGCAAUAUUACGUUGA, the “self-splicing fitness (ln)” value runs as follows: (30 °C) -1.97 ± 0.14; (37 °C) -0.945 ± 0.14. In the case of GAUUAGCAAUAUUACGCACC, the “self-splicing fitness (ln)” value by setting is: (30 °C) -1.5 ± 0.081; (37 °C) -0.681 ± 0.084.

Regarding CCUCAGCAAUAUUACGGGUC, the “self-splicing fitness (ln)” value by setting is: (30 °C) -2.5 ± 0.27; (37 °C) -2.56 ± 0.36. On to GGUAAGCAAUAUUACGAAAG, for which the “self-splicing fitness (ln)” value (30 °C) was -3.68 ± 0.47. Take AAAGAGCAAUAUUACGGCCA: the “self-splicing fitness (ln)” value (30 °C) was -3.01 ± 0.31 and the “self-splicing fitness (ln)” value (37 °C) was -2.5 ± 0.29. For UGACAGCAAUAUUACGUUAU, in that order: -3.65 ± 0.19 and -3.04 ± 0.21. The like results for UUAAAGCAAUAUUACGCGCA were, in that order, -0.137 ± 0.072 and -0.0874 ± 0.1. The like results for UUCUAGCAAUAUUACGUAGG were, in that order, -2.25 ± 0.24 and -0.645 ± 0.31. UAGAAGCAAUAUUACGAUUG: the “self-splicing fitness (ln)” value (30 °C) is -1.74 ± 0.07 and the “self-splicing fitness (ln)” value (37 °C) was -0.442 ± 0.083. CAAGAGCAAUAUUACGCCAC: the “self-splicing fitness (ln)” value (30 °C) was -2.38 ± 0.36. For the sequence AACCAGCAAUAUUACGAGUA, the “self-splicing fitness (ln)” value reads like this: (30 °C) -1.07 ± 0.061; (37 °C) -0.523 ± 0.075.

In the case of UCGGAGCAAUAUUACGUACC, under “30 °C”, the “self-splicing fitness (ln)” value was -2.84 ± 0.48. As to ACAAAGCAAUAUUACGAAAC, the “self-splicing fitness (ln)” value (37 °C) was -0.88 ± 0.2.

In the case of AUUUAGCAAUAUUACGCAAU, the “self-splicing fitness (ln)” value (30 °C) is -2.53 ± 0.2 and the “self-splicing fitness (ln)” value (37 °C) was -1.86 ± 0.18. The like results for GUGAAGCAAUAUUACGCUCU were, in that order, -1.79 ± 0.12 and -0.652 ± 0.13. Consider CCCGAGCAAUAUUACGAAUU, for which the “self-splicing fitness (ln)” value (37 °C) is -2.44 ± 0.35. On to UUAAAGCAAUAUUACGCUGG, for which the “self-splicing fitness (ln)” value (30 °C) is -0.4 ± 0.11 and the “self-splicing fitness (ln)” value (37 °C) is -0.152 ± 0.12. Take UCGAAGCAAUAUUACGUAGC: the “self-splicing fitness (ln)” value (37 °C) was -2.17 ± 0.31. As for ACCCAGCAAUAUUACGAUAU, the “self-splicing fitness (ln)” value was -1.72 ± 0.1 (30 °C) and -0.318 ± 0.11 (37 °C). Turning to AAGUAGCAAUAUUACGGGGU, the “self-splicing fitness (ln)” value runs as follows: (30 °C) -3.03 ± 0.15; (37 °C) -2.53 ± 0.15. CAAGAGCAAUAUUACGGUGA: the “self-splicing fitness (ln)” value runs as follows: (30 °C) -3.01 ± 0.2; (37 °C) -1.88 ± 0.21.

For the origin of these results see the supplement of paper PMC7877785.
